Laboratory results reported in article PMC9122593.
Read-outs that look alike come from different tables or passages of the source.

B1: crRNA-1 + lambda ssDNA (T-strand), no activator (mixed)
RNA: AAUUUCUACUGUUGUAGAUUGUAAAGAAACAGUAAGAUAAU
B2: crRNA-1/lambda-activator + lambda ssDNA (T-strand) (mixed)
RNA: B1 RNA
DNA: CATCGGGTTGAGTATTATCTTACTGTTTCTTTACATAAAC

Experiments:
wtCas12a [1] = target: T1, wtCas12a (Francisella novicida, UniProt A0Q7Q2 1-1300); assay: Mg2+
wtCas12a [2] = target: T1, wtCas12a; assay: Mg2+; remark: listed apart in the source

T1 sequence (A0Q7Q2 whole entry): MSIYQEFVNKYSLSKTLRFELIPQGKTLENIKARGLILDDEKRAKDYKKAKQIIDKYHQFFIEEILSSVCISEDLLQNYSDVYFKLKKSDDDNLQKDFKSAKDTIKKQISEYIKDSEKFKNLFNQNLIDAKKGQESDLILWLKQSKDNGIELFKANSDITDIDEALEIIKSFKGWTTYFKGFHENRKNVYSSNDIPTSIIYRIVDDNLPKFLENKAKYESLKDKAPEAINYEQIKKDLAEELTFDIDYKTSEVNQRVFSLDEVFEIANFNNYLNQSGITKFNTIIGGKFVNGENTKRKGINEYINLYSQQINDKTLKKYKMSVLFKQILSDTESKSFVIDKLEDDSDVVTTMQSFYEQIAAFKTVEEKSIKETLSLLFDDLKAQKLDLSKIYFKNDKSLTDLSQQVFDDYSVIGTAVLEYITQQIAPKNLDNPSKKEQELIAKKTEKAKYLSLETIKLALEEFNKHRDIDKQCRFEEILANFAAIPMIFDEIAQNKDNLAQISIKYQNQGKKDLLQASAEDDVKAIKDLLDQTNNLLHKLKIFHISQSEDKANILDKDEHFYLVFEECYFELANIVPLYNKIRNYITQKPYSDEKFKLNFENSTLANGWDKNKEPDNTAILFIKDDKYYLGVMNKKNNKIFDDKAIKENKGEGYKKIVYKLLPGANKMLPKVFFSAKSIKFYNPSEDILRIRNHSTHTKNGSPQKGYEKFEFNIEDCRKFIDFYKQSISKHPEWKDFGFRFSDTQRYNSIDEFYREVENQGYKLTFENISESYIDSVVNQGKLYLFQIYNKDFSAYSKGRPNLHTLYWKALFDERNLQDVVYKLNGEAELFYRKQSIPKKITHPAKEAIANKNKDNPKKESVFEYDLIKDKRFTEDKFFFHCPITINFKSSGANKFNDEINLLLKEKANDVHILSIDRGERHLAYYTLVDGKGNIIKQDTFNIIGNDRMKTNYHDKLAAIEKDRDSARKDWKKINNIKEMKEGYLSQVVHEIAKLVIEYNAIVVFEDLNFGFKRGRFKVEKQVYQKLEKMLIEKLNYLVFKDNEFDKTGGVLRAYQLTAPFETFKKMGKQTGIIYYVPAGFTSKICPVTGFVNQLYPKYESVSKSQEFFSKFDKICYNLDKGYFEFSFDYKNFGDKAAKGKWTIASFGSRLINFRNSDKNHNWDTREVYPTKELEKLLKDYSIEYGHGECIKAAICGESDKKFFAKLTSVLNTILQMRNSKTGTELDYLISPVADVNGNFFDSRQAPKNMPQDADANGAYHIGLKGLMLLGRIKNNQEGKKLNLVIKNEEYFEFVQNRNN

| Binder | binding result (wtCas12a [1]) | binding result (wtCas12a [2]) |
| --- | --- | --- |
| B1 | no binding |  |
| B2 |  | binds |
